Data taken from paper PMC10397247.

Tests used:
[1] = biological target: T1, 4H376-AA; assay: two-hybrid library CCmax;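 note: natural log of median RNA to DNA barcode read ratio; higher means stronger binding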
T1 chain: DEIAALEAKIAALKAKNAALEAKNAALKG

[2] = biological target: T2, 4H406-AA; assay: two-hybrid library CCmax; details: mean of both orientations;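 note: natural log of median RNA to DNA barcode read ratio; higher means stronger binding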
T2 chain: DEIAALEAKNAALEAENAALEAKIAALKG

[3] = biological target: T3, 4H688-AA; assay: two-hybrid library CCmax; details: mean of both orientations;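 note: natural log of median RNA to DNA barcode read ratio; higher means stronger binding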
T3 chain: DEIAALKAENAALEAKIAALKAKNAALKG

[4] = biological target: T4, 4H963-AA; assay: two-hybrid library CCmax; details: mean of both orientations;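 note: natural log of median RNA to DNA barcode read ratio; higher means stronger binding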
T4 chain: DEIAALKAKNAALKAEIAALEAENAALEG

[5] = biological target: T5, 4H883-AA; assay: two-hybrid library CCmax;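 note: natural log of median RNA to DNA barcode read ratio; higher means stronger binding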
T5 chain: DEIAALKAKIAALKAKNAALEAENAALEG

[6] = biological target: T6, 4H918-AA; assay: two-hybrid library CCmax; details: mean of both orientations;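 note: natural log of median RNA to DNA barcode read ratio; higher means stronger binding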
T6 chain: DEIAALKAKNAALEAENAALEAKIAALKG

[7] = biological target: T7, 4H953-AA; assay: two-hybrid library CCmax; details: mean of both orientations
T7 chain: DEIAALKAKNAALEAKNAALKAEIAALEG

[8] = biological target: T8, 4H967-AA; assay: two-hybrid library CCmax; details: mean of both orientations
T8 chain: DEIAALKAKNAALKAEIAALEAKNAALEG

[9] = biological target: T9, 4H2948-AA; assay: two-hybrid library CCmax
T9 chain: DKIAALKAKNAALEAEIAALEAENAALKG

[10] = biological target: T10, 4H2991-AA; assay: two-hybrid library CCmax; details: mean of both orientations
T10 chain: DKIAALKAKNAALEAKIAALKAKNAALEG

[11] = biological target: T11, 4H3029-AA; assay: two-hybrid library CCmax; details: mean of both orientations
T11 chain: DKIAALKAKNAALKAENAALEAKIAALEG

[12] = biological target: T12, 4H3066-AA; assay: two-hybrid library CCmax; details: mean of both orientations
T12 chain: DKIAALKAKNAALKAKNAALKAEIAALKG

[13] = biological target: T13, 4H3102-AA; assay: two-hybrid library CCmax; details: mean of both orientations
T13 chain: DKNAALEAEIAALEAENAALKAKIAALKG

[14] = biological target: T14, 4H3121-AA; assay: two-hybrid library CCmax; details: mean of both orientations
T14 chain: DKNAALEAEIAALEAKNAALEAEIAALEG

[15] = biological target: T15, 4H3417-AA; assay: two-hybrid library CCmax; details: mean of both orientations
T15 chain: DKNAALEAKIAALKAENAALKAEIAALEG

[16] = biological target: T16, 4H3446-AA; assay: two-hybrid library CCmax; details: mean of both orientations
T16 chain: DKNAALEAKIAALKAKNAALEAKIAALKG

[17] = biological target: T17, 4H3591-AA; assay: two-hybrid library CCmax; details: mean of both orientations
T17 chain: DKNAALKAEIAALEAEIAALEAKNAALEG

[18] = biological target: T18, 4H3628-AA; assay: two-hybrid library CCmax; details: mean of both orientations
T18 chain: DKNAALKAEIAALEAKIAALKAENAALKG

[19] = biological target: T19, 4H3666-AA; assay: two-hybrid library CCmax; details: mean of both orientations
T19 chain: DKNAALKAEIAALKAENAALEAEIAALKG

[20] = biological target: T20, 4H3709-AA; assay: two-hybrid library CCmax; details: mean of both orientations
T20 chain: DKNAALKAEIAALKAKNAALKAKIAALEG

[21] = biological target: T21, 4H391-AA; assay: two-hybrid library CCmax
T21 chain: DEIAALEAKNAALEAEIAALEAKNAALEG

[22] = biological target: T22, 4H3920-AA; assay: two-hybrid library CCmax; details: mean of both orientations
T22 chain: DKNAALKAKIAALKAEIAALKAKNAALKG

[23] = biological target: T23, 4H3939-AA; assay: two-hybrid library CCmax; details: mean of both orientations
T23 chain: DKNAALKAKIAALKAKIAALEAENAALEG

[24] = biological target: T24, 4H428-AA; assay: two-hybrid library CCmax; details: mean of both orientations
T24 chain: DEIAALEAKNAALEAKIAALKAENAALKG

[25] = biological target: T25, 4H478-AA; assay: two-hybrid library CCmax; details: mean of both orientations
T25 chain: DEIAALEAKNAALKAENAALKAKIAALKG

[26] = biological target: T26, 4H497-AA; assay: two-hybrid library CCmax; details: mean of both orientations
T26 chain: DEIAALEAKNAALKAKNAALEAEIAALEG

[27] = biological target: T27, 4H656-AA; assay: two-hybrid library CCmax; details: mean of both orientations
T27 chain: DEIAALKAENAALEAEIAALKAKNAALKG

[28] = biological target: T28, 4H675-AA; assay: two-hybrid library CCmax; details: mean of both orientations
T28 chain: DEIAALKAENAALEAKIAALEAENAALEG

[29] = biological target: T29, 4H971-AA; assay: two-hybrid library CCmax; details: mean of both orientations
T29 chain: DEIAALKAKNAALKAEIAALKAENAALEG

[30] = biological target: T30, 4H3638-bA; assay: two-hybrid library CCNG1
T30 chain: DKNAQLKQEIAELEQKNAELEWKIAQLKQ

[31] = biological target: T31, 4H3817-bA; assay: two-hybrid library CCNG1
T31 chain: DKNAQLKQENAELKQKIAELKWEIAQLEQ

[32] = biological target: T32, 4H3974-bA; assay: two-hybrid library CCNG1
T32 chain: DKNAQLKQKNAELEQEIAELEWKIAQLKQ

[33] = biological target: T33, 4H570-bA; assay: two-hybrid library CCNG1
T33 chain: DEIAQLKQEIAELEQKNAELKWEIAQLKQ

[34] = biological target: T34, 4H584-bA; assay: two-hybrid library CCNG1
T34 chain: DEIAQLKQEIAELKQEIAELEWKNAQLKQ

[35] = biological target: T35, 4H619-bA; assay: two-hybrid library CCNG1
T35 chain: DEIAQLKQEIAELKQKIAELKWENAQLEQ

[36] = biological target: T36, 4H850-bA; assay: two-hybrid library CCNG1
T36 chain: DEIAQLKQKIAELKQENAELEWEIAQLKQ

[37] = biological target: T37, 4H883-bN; assay: two-hybrid library CCNG1
T37 chain: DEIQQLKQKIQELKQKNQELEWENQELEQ

[38] = biological target: T38, 4H906-bA; assay: two-hybrid library CCNG1
T38 chain: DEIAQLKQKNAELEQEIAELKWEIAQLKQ

[39] = biological target: T39, 4H918-bH; assay: two-hybrid library CCNG1
T39 chain: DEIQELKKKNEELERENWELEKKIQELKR

[40] = biological target: T40, 4H3843-bA; assay: two-hybrid library CCNG1
T40 chain: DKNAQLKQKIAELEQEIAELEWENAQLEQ

[41] = biological target: T41, 4H4001-bA; assay: two-hybrid library CCNG1
T41 chain: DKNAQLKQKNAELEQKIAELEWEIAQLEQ

[42] = biological target: T42, 4H462-bA; assay: two-hybrid library CCNG1
T42 chain: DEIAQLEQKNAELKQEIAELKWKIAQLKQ

[43] = biological target: T43, 4H568-bA; assay: two-hybrid library CCNG1
T43 chain: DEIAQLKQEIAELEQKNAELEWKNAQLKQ

[44] = biological target: T44, 4H607-bA; assay: two-hybrid library CCNG1
T44 chain: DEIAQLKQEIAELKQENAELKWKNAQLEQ

[45] = biological target: T45, 4H687-bA; assay: two-hybrid library CCNG1
T45 chain: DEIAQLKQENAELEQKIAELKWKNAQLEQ

[46] = biological target: T46, 4H72-bA; assay: two-hybrid library CCNG1
T46 chain: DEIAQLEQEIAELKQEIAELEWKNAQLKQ

[47] = biological target: T47, 4H797-bA; assay: two-hybrid library CCNG1
T47 chain: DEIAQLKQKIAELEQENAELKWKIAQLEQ

[48] = biological target: T48, 4H883-bA; assay: two-hybrid library CCNG1
T48 chain: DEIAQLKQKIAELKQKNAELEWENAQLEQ

[49] = biological target: T49, 4H918-bA; assay: two-hybrid library CCNG1
T49 chain: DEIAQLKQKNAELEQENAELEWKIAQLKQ

[50] = biological target: T50, 4H953-bA; assay: two-hybrid library CCNG1
T50 chain: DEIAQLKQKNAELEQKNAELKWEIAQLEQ

[51] = biological target: T51, 4H967-bA; assay: two-hybrid library CCNG1
T51 chain: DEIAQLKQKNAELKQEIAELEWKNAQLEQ

[52] = biological target: T52, 4H3782-bA; assay: two-hybrid library CCNG1
T52 chain: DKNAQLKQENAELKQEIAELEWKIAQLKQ

[53] = biological target: T53, 4H3855-bA; assay: two-hybrid library CCNG1
T53 chain: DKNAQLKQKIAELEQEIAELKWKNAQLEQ

[54] = biological target: T54, 4H3855-bH; assay: two-hybrid library CCNG1
T54 chain: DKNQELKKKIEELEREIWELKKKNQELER

[55] = biological target: T55, 4H454-bA; assay: two-hybrid library CCNG1
T55 chain: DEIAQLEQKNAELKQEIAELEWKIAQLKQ

[56] = biological target: T56, 4H462-bN; assay: two-hybrid library CCNG1
T56 chain: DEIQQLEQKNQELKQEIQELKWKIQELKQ

[57] = biological target: T57, 4H687-bN; assay: two-hybrid library CCNG1
T57 chain: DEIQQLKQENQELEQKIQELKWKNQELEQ

[58] = biological target: T58, 4H717-bA; assay: two-hybrid library CCNG1
T58 chain: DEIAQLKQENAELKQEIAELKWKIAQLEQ

[59] = biological target: T59, 4H754-bA; assay: two-hybrid library CCNG1
T59 chain: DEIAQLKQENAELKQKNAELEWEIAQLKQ

[60] = biological target: T60, 4H908-bA; assay: two-hybrid library CCNG1
T60 chain: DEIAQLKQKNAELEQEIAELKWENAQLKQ

Binder: DEIAALEAKIAALKAKNAALEAKNAALKG [4H376-AA]
- interaction score [1]: -1.28
- interaction score [2]: -0.774
- interaction score [3]: -1.96
- interaction score [4]: -1.33

Binder: DEIAALKAKIAALKAKNAALEAENAALEG [4H883-AA]
- interaction score [5]: -1.73
- interaction score [6]: -1.46
- interaction score [7]: -2.05
- interaction score [8]: -2.15

Binder: DKIAALKAKNAALEAEIAALEAENAALKG [4H2948-AA]
- interaction score [9]: -0.0114
- interaction score [10]: -0.169
- interaction score [11]: -1.4
- interaction score [12]: -1.57
- interaction score [13]: 0.56
- interaction score [14]: -1.15
- interaction score [15]: 0.478
- interaction score [16]: -0.524
- interaction score [17]: -1.3
- interaction score [18]: -0.855
- interaction score [19]: -1.69
- interaction score [20]: -1.17
- interaction score [21]: -1.39
- interaction score [22]: -1.35
- interaction score [23]: -1.77
- interaction score [24]: 1.95
- interaction score [25]: -1.62
- interaction score [26]: -1.54
- interaction score [27]: 0.924
- interaction score [28]: -0.414
- interaction score [29]: -0.608

Binder: DKNAQLKQEIAELEQKNAELEWKIAQLKQ [4H3638-bA]
- interaction score [30]: 0.115
- interaction score [31]: -0.0786
- interaction score [32]: 0.0825
- interaction score [33]: -0.717
- interaction score [34]: -1.67
- interaction score [35]: -0.0681
- interaction score [36]: 0.728
- interaction score [37]: -2.2
- interaction score [38]: -1.97
- interaction score [39]: 0.343

Binder: DKNAQLKQKIAELEQEIAELEWENAQLEQ [4H3843-bA]
- interaction score [40]: -0.878
- interaction score [41]: -0.268
- interaction score [42]: -0.841
- interaction score [43]: -1.79
- interaction score [44]: -0.651
- interaction score [45]: -0.85
- interaction score [46]: 0.286
- interaction score [47]: -0.879
- interaction score [48]: -1.14
- interaction score [49]: -1.1
- interaction score [50]: -1.38
- interaction score [51]: -1.25

Binder: DKNAQLKQENAELKQEIAELEWKIAQLKQ [4H3782-bA]
- interaction score [52]: 1.29
- interaction score [40]: 1.18
- interaction score [53]: 0.312
- interaction score [54]: 0.603
- interaction score [41]: 0.27
- interaction score [55]: 1.64
- interaction score [42]: 0.962
- interaction score [56]: 1.22
- interaction score [43]: -1.41
- interaction score [44]: -0.58
- interaction score [45]: 0.572
- interaction score [57]: 0.761
- interaction score [58]: -0.182
- interaction score [46]: -0.987
- interaction score [59]: -0.898
- interaction score [47]: 0.173
- interaction score [48]: 0.21
- interaction score [60]: -1.42
- interaction score [49]: -1.34
- interaction score [50]: -1.07
- interaction score [51]: 0.0169
